Assay results taken from publication doi:10.1101/2021.04.13.439745.

Target: T1, Pil1-mCherry-Atg38(161-190) (S. pombe), O94427
T1 chain: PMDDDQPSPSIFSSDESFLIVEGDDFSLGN
Conditions: remark: other sources report otherwise

PCC (Pearson correlation coefficient of colocalisation): 0.42
B1: GFP-Atg8^(P52A R67A), O94272 1-116 (natural protein)
chain: MRSQFKDDFSFEKRKTESQRIREKYPDRIPVICEKVDKSDIAAIDKKKYLVASDLTVGQFVYVIRKAIKLSPEKAIFIFIDEILPPTAALMSTIYEEHKSEDGFLYITYSGENTFG
